Measurements taken from article PMC12394722, “Regulatory role of the N-terminal intrinsically disordered region of the DEAD-box RNA helicase DDX3X in selective RNA recognition”.

Target: MBP-FL DDX3X (human, UniProt O00571 1-662)
Assay: EMSA; 1 mM ATP-Mg; peer review file prints 665; EMSA: 20 mM K-phosphate pH 7.0, 125 mM KCl, 1 mM DTT, 0.005% Tween-20, 10% glycerol (1 mM ATP-Mg for MBP-FL/Core-C), gel at room temperature; ITC: 20 mM K-phosphate pH 7.0, 50 mM KCl, 25 C; NMR: 200 mM KCl (also 120 mM), 10 C, 50 uM
Conditions: protein: recombinant; tags: N-terminal His6-MBP; chain copies: 2; label: 3'-FAM; blunt, self-complementary

MBP-FL DDX3X, sequence (O00571 whole entry): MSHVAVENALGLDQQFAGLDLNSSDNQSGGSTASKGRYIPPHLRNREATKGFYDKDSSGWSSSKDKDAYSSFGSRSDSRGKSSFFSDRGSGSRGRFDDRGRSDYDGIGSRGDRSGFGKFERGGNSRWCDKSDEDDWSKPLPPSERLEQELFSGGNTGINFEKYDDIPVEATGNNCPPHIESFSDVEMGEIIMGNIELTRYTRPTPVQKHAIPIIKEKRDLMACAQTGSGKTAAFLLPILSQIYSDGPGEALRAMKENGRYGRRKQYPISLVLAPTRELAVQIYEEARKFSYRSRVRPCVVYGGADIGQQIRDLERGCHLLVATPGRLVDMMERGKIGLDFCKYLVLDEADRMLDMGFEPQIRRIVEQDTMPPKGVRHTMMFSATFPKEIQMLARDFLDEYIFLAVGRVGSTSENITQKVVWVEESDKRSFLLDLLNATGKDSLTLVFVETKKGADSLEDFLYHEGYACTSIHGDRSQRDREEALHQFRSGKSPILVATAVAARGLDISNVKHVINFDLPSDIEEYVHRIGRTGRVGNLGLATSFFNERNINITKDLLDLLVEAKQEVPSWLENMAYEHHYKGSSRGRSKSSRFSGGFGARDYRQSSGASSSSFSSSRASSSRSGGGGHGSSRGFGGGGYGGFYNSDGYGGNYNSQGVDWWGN

B1: GC-14mer dsRNA-FAM (dsRNA)
RNA 1: GGGCGGGCCCGCCC
RNA 2: GGGCGGGCCCGCCC
Kd: 655 ± 31 nM
